# Measurements published in article PMC4813732.
# How the values were obtained:
# Human thrombin (human) [1] = molecular target: Human thrombin (human)
# Human thrombin (human) [2] = molecular target: Human thrombin (human); remark: listed apart in the source
Substance,heparin cofactor activity (residual thrombin activity at the end of thrombin inactivation in the presence of heparin; phAT as standard) (Human thrombin (human) [1]) [IU/mg],"second-order rate constant of thrombin inhibition, with heparin (residual thrombin activity on S-2238, 25°C, pH 7.4) (Human thrombin (human) [2])","second-order rate constant of thrombin inhibition, without heparin (residual thrombin activity on S-2238, 25°C, pH 7.4) (Human thrombin (human) [2])"
α-form of recombinant human antithrombin bearing high-mannose-type N-linked oligosaccharides (from UniProt P01008 33-464) (natural protein),5.83,1.9e+07 /M/s,6600 /M/s
β-form of recombinant human antithrombin bearing high-mannose-type N-linked oligosaccharides (from UniProt P01008 33-464) (natural protein),5.8,1.9e+07 /M/s,6100 /M/s
latent form of recombinant human antithrombin (from UniProt P01008 33-464) (natural protein),0.35,,
β-form of recombinant human antithrombin bearing sialylated biantennary complex-type N-linked oligosaccharides lacking a core fucose (from UniProt P01008 33-464) (natural protein),5.66,2e+07 /M/s,7300 /M/s
α-form of recombinant human antithrombin bearing sialylated biantennary complex-type N-linked oligosaccharides lacking a core fucose (from UniProt P01008 33-464) (natural protein),5.49,1.9e+07 /M/s,
